Literature values, collected in publication doi:10.1101/2021.06.28.450170.

Key:
Cys481 = Cys481 (UniProt position 481, YMANGCLLNYL)
Cys442 = Cys442 (UniProt position 442, FMEHGCLSDYL)
Cys797 = Cys797 (UniProt position 797, LMPFGCLLDYV); test: chemical modification

## Bruton's tyrosine kinase (BTK) (Homo sapiens)
Cys481
  pKa: 7.7

## Interleukin-2-inducible T-cell kinase (ITK) (Homo sapiens)
Cys442
  pKa: 8.5

## Epidermal growth factor receptor (EGFR) kinase (Homo sapiens)
Cys797
  pKa: 5.5
